Reference: patent US20180194841A1

How the values were obtained:
[1] = biological target: human CD3 (on Jurkat cells, CD3+, CD20- human T-cell line; on human T cells) (human) (UniProt P07766); test: FACS, serially diluted antibody on Jurkat cells (CD3+, CD20-)
[2] = biological target: Fc receptors (FcR) on U937 cells; test: cell-based or functional assay
[3] = biological target: cynomolgus CD3 (on cynomolgus T cells from PBMCs, "mkT cells") (cynomolgus) (UniProt Q95LI5); test: FACS, serially diluted antibody on cynomolgus T cells (CD2+CD4+ gate of PBMCs)
cynomolgus CD3 (on cynomolgus T cells from PBMCs, "mkT cells") (cynomolgus), sequence (Q95LI5 22-198, chain 1 of 3): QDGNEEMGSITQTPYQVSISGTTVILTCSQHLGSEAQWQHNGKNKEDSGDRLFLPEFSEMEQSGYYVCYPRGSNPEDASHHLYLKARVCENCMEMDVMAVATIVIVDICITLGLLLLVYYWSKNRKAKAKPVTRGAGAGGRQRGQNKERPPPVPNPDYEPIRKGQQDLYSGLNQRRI
cynomolgus CD3 (on cynomolgus T cells from PBMCs, "mkT cells") (cynomolgus), sequence (Q95LI8 22-171, chain 2 of 3, further chain): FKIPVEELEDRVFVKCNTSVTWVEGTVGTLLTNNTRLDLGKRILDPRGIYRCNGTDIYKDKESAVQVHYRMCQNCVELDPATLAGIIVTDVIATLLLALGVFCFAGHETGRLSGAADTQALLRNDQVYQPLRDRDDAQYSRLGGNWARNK
cynomolgus CD3 (on cynomolgus T cells from PBMCs, "mkT cells") (cynomolgus), sequence (Q95LI7 23-181, chain 3 of 3, further chain): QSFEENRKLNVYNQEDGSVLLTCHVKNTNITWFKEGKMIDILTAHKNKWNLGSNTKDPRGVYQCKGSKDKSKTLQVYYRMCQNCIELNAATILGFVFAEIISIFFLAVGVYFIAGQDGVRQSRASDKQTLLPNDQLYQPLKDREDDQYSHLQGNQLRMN

[4] = biological target: His-tagged human FcγRIIIA (F176) (human) (UniProt P08637); test: SPR steady-state, 25 C, His-tagged FcγR captured, antibody injected
His-tagged human FcγRIIIA (F176) (human), sequence (P08637 17-208 limits assumed): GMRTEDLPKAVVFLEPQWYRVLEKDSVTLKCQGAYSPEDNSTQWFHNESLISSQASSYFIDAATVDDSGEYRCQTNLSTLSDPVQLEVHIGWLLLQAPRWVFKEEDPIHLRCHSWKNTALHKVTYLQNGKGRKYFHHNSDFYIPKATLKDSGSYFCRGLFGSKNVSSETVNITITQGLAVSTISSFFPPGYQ

[5] = biological target: His-tagged cynomolgus FcγRIIA (cynomolgus); test: as above
[6] = biological target: His-tagged cynomolgus FcγRIIIA (cynomolgus) (UniProt Q8SPW2); test: as above
His-tagged cynomolgus FcγRIIIA (cynomolgus), sequence (Q8SPW2 17-208 limits assumed): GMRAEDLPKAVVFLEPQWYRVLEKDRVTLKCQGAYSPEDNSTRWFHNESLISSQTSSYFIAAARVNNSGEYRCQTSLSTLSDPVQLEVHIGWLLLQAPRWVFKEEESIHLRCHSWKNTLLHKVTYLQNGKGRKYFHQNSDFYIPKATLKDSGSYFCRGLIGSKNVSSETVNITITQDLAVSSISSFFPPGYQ

[7] = biological target: His-tagged cynomolgus FcγRIIB (cynomolgus); test: as above
[8] = biological target: His-tagged human FcγRIIIB (human) (UniProt O75015); test: as above
His-tagged human FcγRIIIB (human), sequence (O75015 17-200 limits assumed): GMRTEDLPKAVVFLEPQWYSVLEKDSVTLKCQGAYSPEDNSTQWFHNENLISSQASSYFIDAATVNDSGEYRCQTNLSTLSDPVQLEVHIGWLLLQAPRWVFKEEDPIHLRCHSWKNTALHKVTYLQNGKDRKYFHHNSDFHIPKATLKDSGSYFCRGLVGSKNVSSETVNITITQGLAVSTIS

[9] = biological target: His-tagged human FcγRIIA (H131) (human) (UniProt P12318); test: as above
His-tagged human FcγRIIA (H131) (human), sequence (P12318 36-218 limits assumed): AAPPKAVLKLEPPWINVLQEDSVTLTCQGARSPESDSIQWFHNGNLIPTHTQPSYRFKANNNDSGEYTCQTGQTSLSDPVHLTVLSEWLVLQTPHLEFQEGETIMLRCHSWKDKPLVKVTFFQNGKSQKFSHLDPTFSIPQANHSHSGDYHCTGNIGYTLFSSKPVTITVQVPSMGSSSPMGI

[10] = biological target: His-tagged human FcγRIIIA (V176) (human) (UniProt P08637); test: as above
His-tagged human FcγRIIIA (V176) (human), sequence (P08637 17-208 F176V limits assumed): as the sequence (P08637 17-208 limits assumed) above, with F160V counted along it

[11] = biological target: His-tagged human FcγRI (human) (UniProt P12314); test: SPR (Biacore T200), 25 C, His-tagged FcγRI captured on anti-penta-His chip, antibody injected, 1:1 fit
His-tagged human FcγRI (human), sequence (P12314 16-288 limits assumed): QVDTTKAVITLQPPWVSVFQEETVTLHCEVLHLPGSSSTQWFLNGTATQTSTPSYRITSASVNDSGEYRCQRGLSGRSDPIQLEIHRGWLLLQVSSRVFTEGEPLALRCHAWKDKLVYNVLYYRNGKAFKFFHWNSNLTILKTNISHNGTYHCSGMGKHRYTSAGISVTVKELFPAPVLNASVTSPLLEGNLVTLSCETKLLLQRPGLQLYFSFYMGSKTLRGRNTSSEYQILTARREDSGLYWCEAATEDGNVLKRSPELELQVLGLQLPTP

[12] = biological target: His-tagged human FcγRIIB (human) (UniProt P31994); test: SPR steady-state, 25 C, His-tagged FcγR captured, antibody injected
His-tagged human FcγRIIB (human), sequence (P31994 46-217 limits assumed): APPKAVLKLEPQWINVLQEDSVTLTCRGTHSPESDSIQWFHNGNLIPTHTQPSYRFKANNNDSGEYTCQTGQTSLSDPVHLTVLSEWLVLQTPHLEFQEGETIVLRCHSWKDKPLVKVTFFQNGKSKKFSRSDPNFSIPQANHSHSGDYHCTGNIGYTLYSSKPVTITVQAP

[13] = biological target: His-tagged human FcγRIIA (R131) (human) (UniProt P12318); test: as above
His-tagged human FcγRIIA (R131) (human), sequence (P12318 36-218 H167R limits assumed): as the sequence (P12318 36-218 limits assumed) above, with H132R counted along it

Row | Substance | EC50 [1] [µM] | U937 Cytotoxicity Human T-cells [M] (EC50, calcein release) [2] | EC50 [3] [nM] | Kd [4] [µM] | Kd [5] [µM] | Kd [6] [µM] | Kd [7] [µM] | Kd [8] [µM] | Kd [9] [µM] | Kd [10] [µM] | Kd [11] [µM] | T1/2 [11] [min] | Kd [12] [µM] | Kd [13] [µM] | koff [11] [s⁻¹] | kon [11] [M⁻¹ s⁻¹]
1 | Control Antibody 1: Monoclonal antibody "OKT-3" against human T-cell surface antigens | 0.000196 | 3.04e-12 |  |  |  |  |  |  |  |  |  |  |  |  |  | 
2 | Control Antibody 2: Antibody "SP34" reactive against the epsilon chain of the T3 complex on human T lymphocyte cells |  |  | 0.0703 |  |  |  |  |  |  |  |  |  |  |  |  | 
3 | wt-IgG1 Isotype Control (from UniProt P01857 1-328) (antibody) |  |  |  | 1.3 | 4.2 | 0.6 | 4.2 | 2.3 | 1.1 | 1.5 | 0.0043 | 15 |  |  |  | 
4 | wt-IgG4 CPPC Isotype Control (antibody) |  |  |  | 26 | 19.3 | 5.8 | 9.6 |  | 12 | 10 | 0.0139 | 5 | 9.8 | 10 | 0.00236 | 171000
